Results published in patent US7285395B2, “Stearoyl-CoA desaturase 4 gene” (Wisconsin Alumni Research Foundation, priority 2004, dated 2007).

How the values were obtained:
[1] = tested on: SCD; assay: SCD enzyme activity in heart microsomes of leptin-treated ob/ob mice; assay type: in vivo, mouse; conditions: leptin 12 days, [1-14C]stearoyl-CoA substrate, elevated 3-fold in untreated ob/ob
Method: (§1) A, SCD activity: Microsomes were prepared from hearts of PBS-treated, ob/ob, ob/ob pair-fed (PF), and leptin-treated (ob/ob-Leptin) mice, and SCD enzyme activity was determined by measuring the incorporation of radioactivity in oleoyl-CoA using [1-^14C]stearoyl-CoA as a substrate. The reaction products were separated by TLC, and the radioactivity was quantitated. Each value represents the mean±S.E. (n=4). B, Levels of monounsaturated fatty acids in the hearts of ob/ob mice: Total fatty acids were extracted from heart of ob/ob mice treated with either leptin or PBS and wild type controls quantitated by GLC as described in the example below. *, p<0.05 versus wt-PBS; #,p<0.05 versus ob/ob-PBS. C, Total RNA was prepared from hearts of PBS or leptin-treated ob/ob mice and used to measure SCD1, SCD2, and SCD4 mRNA levels by quantitative RT-PCR analysis. The fold change relative to that of wild type was calculated after correction for the levels of cyclophilin used as a standard. Each value represents the mean±S.E. (n=4).
(§2) Subcutaneous Leptin Treatment—ob/ob mice were individually caged and allowed to acclimate for a number of days prior to the start of the experiment. […] Body mass and food intake were measured daily. […]

[2] = tested on: mSCD2; assay: quantitative RT-PCR of mSCD2 mRNA in hearts of leptin-treated ob/ob mice; assay type: in vivo, mouse; conditions: heart of leptin-treated ob/ob mice, 12 days
Method: as §1, §2

B1: leptin: recombinant mouse leptin (Amgen, Thousand Oaks, Calif.) (protein, UniProt P41160 22-167, looked up)
Leptin: VPIQKVQDDTKTLIKTIVTRINDISHTQSVSAKQRVTGLDFIPGLHPILSLSKMDQTLAVYQQVLTSLPSQNVLQIANDLENLRDLLHLLAFSKSCSLPQTSGLQKPESLDGVLEASLYSTEVVALSRLQGSLQDILQQLDVSPEC
[1]
  SCD activity in heart: completely normalized to wild type levels
[2]
  expression of mSCD2 isoform: unchanged
